These results are taken from patent publication US20240132593A1 (KINETA, published 2024).

Assay [1] concerns the target T1, hVISTA ECD-Fc R54A, F62A, Q63A (human).
T1 construct: also called human VISTA-Fc 54A62A63A; triple VISTA-Fc mutant
Description: ELISA on immobilized VISTA-Fc (5 µg/mL), antibody at 10 µg/mL.
Description: ELISA was used to measure antibody binding to wild-type and mutant VISTA essentially as described above. VISTA-Fc (5 μg/mL) was immobilized on Maxisorb 96-well ELISA plates and reacted with each antibody diluted to 10 μg/mL in a standard ELISA format. Binding data were reported as absorbance at 450 nm.

In assay [2] the target is T2, His-tagged recombinant mouse VISTA-ECD (Met 1 to Ala 194) (Sino Biological) (mouse, UniProt Q9D659 33-194).
T2 construct: not shown: His tag
T2 sequence: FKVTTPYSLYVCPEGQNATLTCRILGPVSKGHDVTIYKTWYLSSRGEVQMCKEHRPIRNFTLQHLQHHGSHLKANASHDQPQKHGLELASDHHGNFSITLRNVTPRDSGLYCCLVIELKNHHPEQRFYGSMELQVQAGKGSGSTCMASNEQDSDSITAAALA
Nature of the assay: BLI (Octet Red 96), antibody on AHC sensor. On the technique in general: In BLI a coated tip is dipped into the sample, and binding shifts an interference pattern.

T1 sequence (chain, as listed by the source R54A F62A Q63A R54A F62A Q63A): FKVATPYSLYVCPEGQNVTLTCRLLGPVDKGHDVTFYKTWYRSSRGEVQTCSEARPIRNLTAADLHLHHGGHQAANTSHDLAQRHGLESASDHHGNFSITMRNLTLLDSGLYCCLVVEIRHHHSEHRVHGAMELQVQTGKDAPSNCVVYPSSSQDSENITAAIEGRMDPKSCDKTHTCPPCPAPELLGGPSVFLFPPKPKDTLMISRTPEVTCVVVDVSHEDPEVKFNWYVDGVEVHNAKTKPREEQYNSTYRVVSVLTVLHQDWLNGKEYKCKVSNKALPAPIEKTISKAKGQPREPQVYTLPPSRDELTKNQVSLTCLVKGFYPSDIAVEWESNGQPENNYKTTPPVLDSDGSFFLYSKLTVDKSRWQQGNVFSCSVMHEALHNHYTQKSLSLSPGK

B1: Antibody No. 833.1 (antibody, human IgG1, kappa)
light: EIVLTQSPDFQSVTPKEKVTITCRASQSIGSSLHWYQQKPDQSPKLLIKYASQSISGVPSRFSGSGSGTDFTLTINSLEAEDAAAYYCHQSSSLPQTFGQGTKVEIKRTVAAPSVFIFPPSDEQLKSGTASVVCLLNNFYPREAKVQWKVDNALQSGNSQESVTEQDSKDSTYSLSSTLTLSKADYEKHKVYACEVTHQGLSSPVTKSFNRGEC
heavy: not shown
notes: also called Ab No. 833.1
Take B1: the results for the binding result in assay [1] and in assay [2] were “binds” and “no binding (tested: 50 nM-300 nM)”, respectively.
